B1: ELKS1_RBD, Rab-binding domain of ELKS1 (residues 849-922) (domain or fragment, rat, UniProt Q811U3 849-922, looked up)
chain: RKHLEEVLEMKQEALLAAISEKDANIALLELSSSKKKTQEEVAALKREKDRLVQQLKQQTQNRMKLMADNYEDD
notes: As used in analytical gel filtration and ITC; source: E. coli BL21(DE3), purified (Ni2+-NTA, size-exclusion chromatography)
B2: ELKS1 C-terminal coiled-coil region (residues 761-927) (domain or fragment, rat, UniProt Q811U3 761-927, looked up)
chain: QVKDQNKKVANLKHKEQVEKKKSAQMLEEARRREDSLSDSSQQLQVEELLMAMEKVKQELESMKAKLSSTQQSLAEKETHLTNLRAERRKHLEEVLEMKQEALLAAISEKDANIALLELSSSKKKTQEEVAALKREKDRLVQQLKQQTQNRMKLMADNYEDDHFRSS
notes: ELKS1 (Rab6IP2, CAST, ERC), rat, GenBank AY174115.1, residues 761-927; also called C-terminal fragment of ELKS1; source: E. coli BL21(DE3), purified (Ni2+-NTA, size-exclusion chromatography)

Experiments:
[1] = biological target: T1, Rab6B^Q72L, GTPase domain (residues 8-176), constitutively active mutant (mouse, UniProt P61294 8-176, Q72L); assay: ITC; MicroCal PEAQ-ITC, 25 °C, 50 mM Tris pH 7.5, 100 mM NaCl, 2 mM MgCl2; typically one protein (400 μM) in the syringe into its binding protein (40 μM) in the cell; conditions: both partners purified
T1 construct: Rab6B, mouse, GenBank NM_173781.4, GTPase domain residues 8-176, with Q72L; Used in analytical gel filtration and ITC; The methods tell of tag cleavage (HRV 3C) only for crystallization, so the Trx-His6 tag was probably still on; also called continuously active mutant Rab6B^Q72L; active form of Rab6B; source: E. coli BL21(DE3), purified (Ni2+-NTA, size-exclusion chromatography)
T1 sequence (P61294 8-176 Q72L): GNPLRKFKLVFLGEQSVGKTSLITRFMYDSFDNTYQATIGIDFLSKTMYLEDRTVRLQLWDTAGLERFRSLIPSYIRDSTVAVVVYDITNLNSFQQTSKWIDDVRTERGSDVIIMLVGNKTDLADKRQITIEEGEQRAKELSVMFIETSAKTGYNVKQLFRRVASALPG

[2] = biological target: T1, Rab6B^Q72L, GTPase domain (residues …); assay: SEC; analytical gel filtration, Superdex 200 Increase 10/300 GL, 50 mM Tris pH 7.5, 100 mM NaCl, 2 mM MgCl2, 1 mM DTT; conditions: both partners purified

| Binder | Kd [1] | binding result [2] |
| --- | --- | --- |
| B1 | ~8 µM |  |
| B2 |  | binds |

Reference: article PMC10267580, “Structural basis of ELKS/Rab6B interaction and its role in vesicle capturing enhanced by liquid-liquid phase separation” (The Journal of Biological Chemistry, 2023)
